# Results taken from patent CN113004416A (HEFEI HANKEMAB BIOTECHNOLOGY CO LTD, dated 2021).
# B1: 抗人HER2单克隆抗体 Trastuzumab (Herceptin) (antibody, V domains shown)
# VH: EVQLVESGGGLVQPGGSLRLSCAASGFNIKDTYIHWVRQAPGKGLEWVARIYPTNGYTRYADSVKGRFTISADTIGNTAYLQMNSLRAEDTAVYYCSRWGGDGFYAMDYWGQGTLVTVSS
# VL: DIQMTQSPSSLSASVGDRVTITCRASQDVNTAVAWYQQKPGKAPKLLIYSASFLYSGVPSRFSGSRSGTDFTLTISSLQPEDFATYYCQQHYTTPPTFGGGTKLTVLG
# notes: IgG1, kappa; also called 曲妥珠单抗
# B2: 抗人4-1BB单克隆抗体 HuB6 (antibody, V domains shown)
# VH: QVQLQESGPGLVKPSETLSITCTVSGSSLTSYGVHWVRQPPGKGLEGLGVIWPGGSTNYNSALMSRLTISKDNSKSQVSLKMSSLTAADTAMYYCARVTGTWYFDVWGQGTTVTVSS
# VL: DIQMTQSPSSLSASLGDRVTISCSASQGISNYLNWYQQKPDGTVKLLIYYTSTLHSGVPSRFSGSGSGTDFTLTISSLQPEDVATYYCQQYSKLPWTFGGGTKLEIK
# notes: Monoclonal antibody; also called Hanke10F4 (专利申请201911105611.1)
# Tests used:
# [1] = molecular target: T1, 细胞表面HER2抗原 (HER2 on SKOV3, N87, MCF-7/HER2, MCF-7, JIMT-1, AC16 cells) (human, UniProt P04626 23-1255); assay: flow cytometry on N87 cells
# T1 construct: whole, on cells
# [2] = molecular target: T1, 细胞表面HER2抗原 (HER2 on SKOV3, N87, …); assay: flow cytometry on JIMT-1 cells
# [3] = molecular target: T1, 细胞表面HER2抗原 (HER2 on SKOV3, N87, …); assay: flow cytometry on MCF-7/HER2 cells
# [4] = molecular target: T2, HER2抗原 (human HER2/ErbB2 in lysate of T6-17 cells, coated on ELISA plate) (human, UniProt P04626 23-1255); assay: ELISA on coated T6-17 cell lysate
# T2 construct: The antigen is a crude detergent lysate of cells with high membrane expression of human HER2, not a purified protein
# [5] = molecular target: T1, 细胞表面HER2抗原 (HER2 on SKOV3, N87, …); assay: flow cytometry on SKOV3 cells
# [6] = molecular target: T1, 细胞表面HER2抗原 (HER2 on SKOV3, N87, …); assay: flow cytometry on AC16 cells
# [7] = molecular target: 细胞表面4-1BB抗原 (human 4-1BB on CHO-K1-Hu4-1BB stable cells; CD137 on lymphocytes) (human); assay: flow cytometry on CHO-K1-Hu4-1BB cells
# Chain of 细胞表面4-1BB抗原 (human 4-1BB on CHO-K1-Hu4-1BB stable cells; CD137 on lymphocytes) (human) (chain, as listed by the source): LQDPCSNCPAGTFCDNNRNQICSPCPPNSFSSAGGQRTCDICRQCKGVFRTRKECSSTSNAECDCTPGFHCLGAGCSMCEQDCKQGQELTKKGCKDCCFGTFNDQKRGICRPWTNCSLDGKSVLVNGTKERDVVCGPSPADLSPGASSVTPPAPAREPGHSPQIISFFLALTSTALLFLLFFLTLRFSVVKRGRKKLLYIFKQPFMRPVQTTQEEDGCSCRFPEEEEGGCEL
# [8] = molecular target: 人4-1BB抗原 (recombinant, purified from 293 cell supernatant by Protein A) (human); assay: ELISA on coated 4-1BB antigen
# Chain of 人4-1BB抗原 (recombinant, purified from 293 cell supernatant by Protein A) (human) (chain, as listed by the source): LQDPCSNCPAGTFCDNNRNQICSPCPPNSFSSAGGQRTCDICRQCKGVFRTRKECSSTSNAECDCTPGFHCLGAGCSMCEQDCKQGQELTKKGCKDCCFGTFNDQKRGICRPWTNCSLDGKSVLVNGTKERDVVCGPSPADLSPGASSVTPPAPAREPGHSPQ
binder,measurement,setting,value
B1,EC50,[1],2 µg/mL
same,EC50,[2],1.1 µg/mL
same,EC50,[3],1.39 µg/mL
same,EC50,[4],0.104 µg/mL
same,EC50,[5],1.23 µg/mL
same,EC50,[6],0.851 µg/mL
B2,EC50,[7],2.49 µg/mL
same,EC50,[8],0.00634 µg/mL
